The test deals with Pbs2-HKMT (S. cerevisiae) (UniProt P08018). The test can be described thus: proximity labelling.
Sequence of Pbs2-HKMT (S. cerevisiae) (P08018 whole entry): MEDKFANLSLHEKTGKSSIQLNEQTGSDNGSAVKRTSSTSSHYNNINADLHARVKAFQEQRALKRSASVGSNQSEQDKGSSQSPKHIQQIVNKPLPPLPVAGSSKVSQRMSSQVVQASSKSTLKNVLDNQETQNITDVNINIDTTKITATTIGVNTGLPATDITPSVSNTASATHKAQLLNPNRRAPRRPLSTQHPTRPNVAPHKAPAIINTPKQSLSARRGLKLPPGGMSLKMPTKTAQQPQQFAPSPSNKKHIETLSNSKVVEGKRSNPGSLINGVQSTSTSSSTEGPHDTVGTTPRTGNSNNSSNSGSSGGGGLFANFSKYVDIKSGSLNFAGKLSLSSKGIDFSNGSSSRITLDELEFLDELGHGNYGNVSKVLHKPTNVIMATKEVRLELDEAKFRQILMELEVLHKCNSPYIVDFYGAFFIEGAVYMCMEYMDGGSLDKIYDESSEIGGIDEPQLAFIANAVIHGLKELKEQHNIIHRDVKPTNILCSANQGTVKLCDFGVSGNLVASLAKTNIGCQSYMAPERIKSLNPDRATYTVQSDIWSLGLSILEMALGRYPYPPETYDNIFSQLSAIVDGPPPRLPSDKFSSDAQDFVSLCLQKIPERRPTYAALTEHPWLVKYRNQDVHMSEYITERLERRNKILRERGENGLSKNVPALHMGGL

Sho1-H3-HA Y8A mutant (natural protein) showed a percent reduction in methylation signal in comparison with wild-type Sho1 of 70%.

As to “Sho1-H3-HA Y54M mutant (natural protein)”, the percent reduction in methylation signal in comparison with wild-type Sho1 turned out to be 92%.
